To fix the notation:
B1: Type-1 angiotensin II receptor A (Rattus norvegicus (Rat)), P25095 (parent)
chain: MALNSSAEDGIKRIQDDCPKAGRHSYIFVMIPTLYSIIFVVGIFGNSLVVIVIYFYMKLKTVASVFLLNLALADLCFLLTLPLWAVYTAMEYRWPFGNHLCKIASASVSFNLYASVFLLTCLSIDRYLAIVHPMKSRLRRTMLVAKVTCIIIWLMAGLASLPAVIHRNVYFIENTNITVCAFHYESRNSTLPIGLGLTKNILGFLFPFLIILTSYTLIWKALKKAYEIQKNKPRNDDIFRIIMAIVLFFFFSWVPHQIFTFLDVLIQLGVIHDCKISDIVDTAMPITICIAYFNNCLNPLFYGFLGKKFKKYFLQLLKYIPPKAKSHSSLSTKMSTLSYRPSDNMSSSAKKPASCFEVE

In the first experiment the parent is B1. As to conditions: with angt_human AGT.
For the variant C76A;C296A, the “effect of a mutation on the interaction” value is “decreasing interaction”.

The variants in another experiment derive from B1. As to conditions: with angt_human AGT. The source holds these as a separate data set.
Turning to Y292A, the “effect of a mutation on the interaction” value was “decreasing interaction”.

Variants of B1 are the subject of the next experiment. As to conditions: with angt_human AGT. The source holds these as a separate data set.
On to C76A;C289A, for which the “effect of a mutation on the interaction” value was “decreasing interaction”.

Variants of B1 are the subject of a further experiment. As to conditions: with angt_human AGT. The source holds these as a separate data set.
C76A;C289A: the “effect of a mutation on the interaction” value was “decreasing interaction”.
For the variant N295C, the “effect of a mutation on the interaction” value was “decreasing interaction”.

Another experiment covers variants of B1. As to conditions: with angt_human AGT. The source holds these as a separate data set.
Take C76A;C289A: the “effect of a mutation on the interaction” value was “increasing interaction”.
N294C: the “effect of a mutation on the interaction” value is recorded as “increasing interaction”.

In another experiment the parent is B1. As to conditions: with angt_human AGT. The source holds these as a separate data set.
Turning to C149A, the “effect of a mutation on the interaction” value is reported as “decreasing interaction”.

In the next experiment the parent is B1. As to conditions: with angt_human AGT. The source holds these as a separate data set.
As to C76A;C289A;C296A, the “effect of a mutation on the interaction” value is recorded as “decreasing interaction”.

The variants in the next experiment derive from B1. As to conditions: with angt_human AGT. This is another data set of the same source.
For T287A, the “effect of a mutation on the interaction” value was “decreasing interaction”.

Variants of B1 are the subject of another experiment. As to conditions: with angt_human AGT. This is another data set of the same source.
For Q257A, the “effect of a mutation on the interaction” value was “decreasing interaction”.

Values taken from IntAct's records for PubMed 18202720.
